Publication PMC6032152, “Ca2+/Calmodulin-Dependent AtSR1/CAMTA3 Plays Critical Roles in Balancing Plant Growth and Immunity”

B1: IAA1-2 promoter fragment (dsDNA)
DNA 1: AAGAAAGAAGCCGCGTCCAAAATCTT
DNA 2: AAGATTTTGGACGCGGCTTCTTTCTT
B2: ADR1 promoter fragment (dsDNA)
DNA 1: ATTAATCAAAACGCGTAAAAAGAGTA
DNA 2: TACTCTTTTTACGCGTTTTGATTAAT
B3: SAUR41 promoter fragment (dsDNA)
DNA 1: AACGAAGGGCCCGCGCTGTACTCGAT
DNA 2: ATCGAGTACAGCGCGGGCCCTTCGTT
B4: IAA19 promoter fragment (dsDNA)
DNA 1: AAAAAGCACGACGCGGTGCCATTACT
DNA 2: AGTAATGGCACCGCGTCGTGCTTTTT
B5: DWF4 promoter fragment (dsDNA)
DNA 1: ATAAGCCTATACGCGCTCAAAGTATG
DNA 2: CATACTTTGAGCGCGTATAGGCTTAT
B6: PDF1.4 promoter fragment (dsDNA)
DNA 1: CGTGAAAGTCACGCGCCAAGAACAAA
DNA 2: TTTGTTCTTGGCGCGTGACTTTCACG
B7: At5g41750-2 promoter fragment (dsDNA)
DNA 1: TCATTGGTCCTCGCGACTATAACAAA
DNA 2: TTTGTTATAGTCGCGAGGACCAATGA
B8: NPR1 promoter fragment (dsDNA)
DNA 1: AAAGTAAAAAACGCGGAAAGCAATAA
DNA 2: TTATTGCTTTCCGCGTTTTTTACTTT
B9: At5g41750-1 promoter fragment (dsDNA)
DNA 1: TCTTTAGTCGTCGCGAATTCTTTGGG
DNA 2: CCCAAAGAATTCGCGACGACTAAAGA

Biological target: T1, AtSR1 (CAMTA3) CG-1 domain (Arabidopsis thaliana, UniProt Q8GSA7 1-153)
T1 sequence: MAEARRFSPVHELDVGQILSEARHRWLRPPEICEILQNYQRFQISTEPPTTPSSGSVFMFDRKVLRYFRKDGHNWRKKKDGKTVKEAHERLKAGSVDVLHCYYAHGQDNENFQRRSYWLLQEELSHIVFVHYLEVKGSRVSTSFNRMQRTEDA
Assay: EMSA; EMSA; buffer, salt, pH and temperature not given in the material
Details: protein: recombinant; tags: 6His (pET32a-derived plasmid)

| Binder | binding result |
| --- | --- |
| B1 | binds |
| B2 | binds |
| B3 | no binding |
| B4 | binds |
| B5 | binds |
| B6 | binds |
| B7 | binds |
| B8 | binds |
| B9 | no binding |
